Consider three molecules from patent US7018801.

Data set [1] deals with GM (GST - ICE-site linker - MBP model substrate for ICE) [GST: P08515].
In data set [2] the target is GG (GST - ICS linker - GFP model substrate for ICE) [GST: P08515].
The target in data set [3] is T1, ICS (14 mer epitope that is part of human pro-IL-1beta) (human).
T1 chain: NEAYVHDGPVRSLN
Put plainly: method not stated; 'measured in a different context' from the protease experiment.

For data set [4], the target named is GG (GST - ICS linker - GFP model substrate for ICE) (human) [GST: P08515]. The data set can be described thus: cell-based or functional assay.
Data set [5] shares this target.

GG (GST - ICS linker - GFP model substrate for ICE) [GST: P08515], sequence (P08515 whole entry, looked up): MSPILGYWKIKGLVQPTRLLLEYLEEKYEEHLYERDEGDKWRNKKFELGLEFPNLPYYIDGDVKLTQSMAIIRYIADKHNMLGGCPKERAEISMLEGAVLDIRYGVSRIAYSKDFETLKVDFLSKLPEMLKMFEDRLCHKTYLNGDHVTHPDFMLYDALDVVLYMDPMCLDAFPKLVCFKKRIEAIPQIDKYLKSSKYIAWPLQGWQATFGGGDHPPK
GM (GST - ICE-site linker - MBP model substrate for ICE) [GST: P08515], sequence (P08515 whole entry, looked up): as above

B1: interleukin converting enzyme (ICE) (protein)
chain: NPAMPTSSGSEGNVKLCSLEEAQRIWKQKSAEIYPIMDKSSRTRLALIICNEEFDSIPRRTGAEVDITGMTMLLQNLGYSVDVKKNLTASDMTTELEAFAHRPEHKTSDSTFLVFMSHGIREGICGKKHSEQVPDILQLNAIFNMLNTKNCPSLKDKPKVIIIQACRGDSPGVVWFKDSVGVSGNLSLPTTEEFEDDAIKKAHIEKDFIAFCSSTPDNVSWRHPTMGSVFIGRLIEHMQEYACSCDVEEIFRKVRFSFEQPDGRAQMPTTERVTLTRCFYLFPGH
As to B1, the “cleavage of substrate by purified ICE” value in data set [1] is “Purified ICE cuts both the GG and GM substrates efficiently under these conditions”; in data set [2], “Purified ICE cuts both the GG and GM substrates efficiently under these conditions”.

Turning to KARKEAELAAATAEQ (modifications not checked) [LEPB], the Kd in data set [3] stood at 2000 nM.

KARKEAELAAATAEQ (peptide, from a related filing) [synthetic LEPB] registered an IC50 of inhibition of the cleavage of GG by ICE in data set [4] of 50 to 100 µM. The IC50 (read off the curve), inhibition of ICE cleavage of GG in data set [5] is 80 µM.
